Article doi:10.1101/2024.12.23.630085, “Accurate sequence-to-affinity models for SH2 domains from multi-round peptide binding assays coupled with free-energy regression” (bioRxiv, 2025)
Non-standard residues stand in square brackets, D forms with d. No end group written: not given here. *: point of attachment. FITC = O=C1OC2(c3ccc(O)cc3Oc3cc(O)ccc32)c2ccc(NC(=S)*)cc21; pY = N[C@@H](Cc1ccc(OP(=O)(O)O)cc1)C(=O)O; Ahx = NCCCCCC(=O)O

Tests used:
Assay in all cases: fluorescence polarisation; competition mode: unlabelled phosphopeptide competes with a FITC-labelled probe phosphopeptide for the purified SH2 domain; probe KD first measured in direct mode; as described in ref. 33
Details in all cases: both partners purified
Fyn SH2 domain (142-248) = molecular target: T1, Fyn SH2 domain (142-248) (human, UniProt P06241 142-248, biotin on the AviTag)
T1 construct: human Fyn kinase, SH2 domain, residues 142-248; source: E. coli C43(DE3) with BirA helper plasmid, purified (HisTrap, HiTrap Q, Superdex 75); not shown: His6-SUMO, N-terminal, cleaved; AviTag, C-terminal, kept

Lyn SH2 domain (121-228) = molecular target: T2, Lyn SH2 domain (121-228) (human, UniProt P07948 121-228, biotin on the AviTag)
T2 construct: source: E. coli C43(DE3) with BirA helper plasmid, purified (HisTrap, HiTrap Q, Superdex 75); not shown: His6-SUMO, N-terminal, cleaved; AviTag, C-terminal, kept

Yes SH2 domain (150-257) = molecular target: T3, Yes SH2 domain (150-257) (human, UniProt P07947 150-257, biotin on the AviTag)
T3 construct: human Yes kinase, SH2 domain, residues 150-257; source: E. coli C43(DE3) with BirA helper plasmid, purified (HisTrap, HiTrap Q, Superdex 75); not shown: His6-SUMO, N-terminal, cleaved; AviTag, C-terminal, kept

Blk SH2 domain (116-222) = molecular target: T4, Blk SH2 domain (116-222) (human, UniProt P51451 116-222, biotin on the AviTag)
T4 construct: human Blk kinase, SH2 domain, residues 116-222; source: E. coli C43(DE3) with BirA helper plasmid, purified (HisTrap, HiTrap Q, Superdex 75); not shown: His6-SUMO, N-terminal, cleaved; AviTag, C-terminal, kept

Measured: binding result

T2 sequence (P07948 121-228): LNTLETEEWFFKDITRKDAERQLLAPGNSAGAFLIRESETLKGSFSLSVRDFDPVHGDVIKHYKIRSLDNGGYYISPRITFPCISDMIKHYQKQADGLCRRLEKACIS
T3 sequence (P07947 150-257): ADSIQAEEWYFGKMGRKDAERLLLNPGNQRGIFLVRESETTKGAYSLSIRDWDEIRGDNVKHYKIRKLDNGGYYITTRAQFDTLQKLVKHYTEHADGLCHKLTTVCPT
T1 sequence (P06241 142-248): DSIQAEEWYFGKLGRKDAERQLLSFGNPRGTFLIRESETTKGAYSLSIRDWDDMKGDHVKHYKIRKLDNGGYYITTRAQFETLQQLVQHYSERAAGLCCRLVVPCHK
T4 sequence (P51451 116-222): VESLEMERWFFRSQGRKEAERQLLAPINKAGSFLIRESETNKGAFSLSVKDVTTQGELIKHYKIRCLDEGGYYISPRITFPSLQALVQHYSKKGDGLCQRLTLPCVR

B1: FITC-Ahx-GDG(pY)EEISPLLL (peptide)
peptide: {FITC-Ahx}-GDG[pY]EEISPLLL
notes: c-Src SH2 consensus peptide; the Y is phosphotyrosine; also called c-Src SH2 consensus; probe; source: synthetic peptide (SynPeptide, China)
binds: Fyn SH2 domain (142-248) | Lyn SH2 domain (121-228) | Yes SH2 domain (150-257) | Blk SH2 domain (116-222)
